Assay results reported in PMC4363599, “A Purification Method for a Molecular Complex in Which a Scaffold Molecule Is Fully Loaded with Heterogeneous Molecules”.

B1: BCD35 2'-fPy-RNA (XNA)
RNA: GGUUCAGCUGACUCGAAAGGGCGUGAUGCUGAAUC
modifications: 2'-fluoro on all pyrimidines
B2: fBCD35g immobilized on resin (XNA)
RNA: GGUUCAGCUGAGGCGAAAGCCGGUGAUGCUGAAUC
modifications: 2'-fluoro on all pyrimidines

Experiments:
[1] = biological target: L7Ae (UniProt O29494 1-119); experiment: SPR; no signal up to 2 uM RNA; SPR as in ref 9 (L7Ae chip, RNA analyte); resin and plate assays in assay buffer at room temperature; buffer composition, salt and pH not given in the material; conditions: protein: recombinant; tags: His tag (pET28b-His-L7Ae-cmyc-His named as the L7Ae expression plasmid); immobilized on SPR chip
[2] = biological target: Alexa Fluor 633-labelled L7Ae (UniProt O29494 1-119); experiment: pull-down; fBCD35g resin removes most free L7Ae; SPR as in ref 9 (L7Ae chip, RNA analyte); resin and plate assays in assay buffer at room temperature; buffer composition, salt and pH not given in the material; conditions: protein: recombinant; tags: His tag; Alexa Fluor 633 by amine coupling; label: resin-immobilized
Sequence of Alexa Fluor 633-labelled L7Ae (O29494 whole entry): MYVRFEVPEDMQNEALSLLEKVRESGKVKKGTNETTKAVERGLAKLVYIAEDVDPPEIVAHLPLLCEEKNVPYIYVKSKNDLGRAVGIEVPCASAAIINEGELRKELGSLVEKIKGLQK

Sequence of L7Ae (O29494 whole entry): as above

Binder | binding result [1] | binding result [2]
B1 | no binding | –
B2 | – | binds
